We go through 3 molecules from PMC3542614 (Cell Death & Disease, 2012).

Test [1] has as its target Bcl-BΔC27 (C-terminally truncated Bcl-B, residues A2–A167, cysteines 20 and 128 mutated to serine) (human). The experiment in a line: SPR. On the technique in general: SPR reads the build-up and loss of mass on a sensor chip optically.
Test [2] concerns Bcl-B. Particulars: cited from earlier work.
The target of test [3] is T1, Bcl-B:Bim complex (Homo sapiens, UniProt Q9HD36, C138S/C30S).
T1 sequence (Q9HD36 12-177 C30S/C138S): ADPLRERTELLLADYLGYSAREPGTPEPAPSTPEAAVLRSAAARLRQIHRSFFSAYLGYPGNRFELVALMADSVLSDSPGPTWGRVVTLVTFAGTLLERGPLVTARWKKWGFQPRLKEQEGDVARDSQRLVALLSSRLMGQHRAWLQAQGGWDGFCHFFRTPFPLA
Nature of the test: SPR competition assay: displacement of Bim-BH3 from the Bcl-B:6His-Bim complex. The class given is binding. Particulars: BH3 peptides between 1.25 and 40 μM.

Molecule Bik-BH3 peptide displayed a half-maximal inhibitory concentration (IC50) in test [1] of 113 µM.

As to `CN(C)CC[C@H](CSc1ccccc1)Nc1ccc(S(=O)(=O)NC(=O)c2ccc(N3CCN(Cc4ccccc4-c4ccc(Cl)cc4)CC3)cc2)cc1[N+](=O)[O-]` [ABT-737], in test [2], the “Binding to Bcl-B” value is “does not bind Bcl-B”. The “Displacement of Bim from the Bcl-B:Bim complex” value in test [3] is “failed to displace Bim”.

Bax-BH3 peptide displayed an IC50 in test [1] of 6.6 µM.

The term IC50 denotes the concentration that gives 50% inhibition. A high value points to weaker potency in that assay.
